Tested on: Escherichia coli TOP10
Assay: shrunken log2 fold change of peptide-encoding DNA abundance (4.5 h post-induction vs induction); higher = less antimicrobial activity (less host growth inhibition)
Conditions: time post-induction: 4.5 h; library: site-saturation at positions 5, 18, 19, 20
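Also: peptides expressed intracellularly from a pBAD plasmid library in pooled LB shake-flask culture, induced with 0.3% L-arabinose, DNA abundance read by NGS, three biological replicates, DESeq2 with apeglm shrinkage.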

Row | Sequence | shrunken log2 fold change
1 | RRIRQRPPRLPRPRPRPGMWPRP | 0.191
2 | RRIRQRPPRLPRPRPRPGNIPRP | -0.151
3 | RRIRQRPPRLPRPRPRPGNMPRP | -0.0822
4 | RRIRQRPPRLPRPRPRPGNVPRP | 0.0829
5 | RRIRQRPPRLPRPRPRPGPGPRP | 0.507
6 | RRIRQRPPRLPRPRPRPGPLPRP | -0.035
7 | RRIRQRPPRLPRPRPRPGQDPRP | 0.102
8 | RRIRQRPPRLPRPRPRPGRAPRP | 0.474
9 | RRIRQRPPRLPRPRPRPGRNPRP | -0.0272
10 | RRIRQRPPRLPRPRPRPGSDPRP | 0.337
11 | RRIRQRPPRLPRPRPRPGTEPRP | 0.119
12 | RRIRQRPPRLPRPRPRPGVVPRP | 0.000417
13 | RRIRQRPPRLPRPRPRPGWFPRP | 0.209
14 | RRIRQRPPRLPRPRPRPGWNPRP | -0.0526
15 | RRIRQRPPRLPRPRPRPGYTPRP | -0.912
16 | RRIRQRPPRLPRPRPRPHAKPRP | 0.12
17 | RRIRQRPPRLPRPRPRPHAWPRP | 0.157
18 | RRIRQRPPRLPRPRPRPHCPPRP | -0.0268
19 | RRIRQRPPRLPRPRPRPHECPRP | -0.0866
20 | RRIRQRPPRLPRPRPRPHGLPRP | -0.327
21 | RRIRQRPPRLPRPRPRPHIAPRP | -0.142
22 | RRIRQRPPRLPRPRPRPHISPRP | -0.312
23 | RRIRQRPPRLPRPRPRPHLDPRP | -0.0359
24 | RRIRQRPPRLPRPRPRPHLEPRP | -0.15
25 | RRIRQRPPRLPRPRPRPHLFPRP | 0.0199

Row | Sequence | shrunken log2 fold change
26 | RRIRQRPPRLPRPRPRPHMCPRP | -0.0238
27 | RRIRQRPPRLPRPRPRPHMVPRP | -0.0317
28 | RRIRQRPPRLPRPRPRPHNQPRP | -0.644
29 | RRIRQRPPRLPRPRPRPHPDPRP | -0.0624
30 | RRIRQRPPRLPRPRPRPHPEPRP | 0.0615
31 | RRIRQRPPRLPRPRPRPHPQPRP | 0.24
32 | RRIRQRPPRLPRPRPRPHRPPRP | 0.0757
33 | RRIRQRPPRLPRPRPRPHRQPRP | 0.00471
34 | RRIRQRPPRLPRPRPRPHRRPRP | -0.185
35 | RRIRQRPPRLPRPRPRPHRSPRP | -0.00875
36 | RRIRQRPPRLPRPRPRPHSKPRP | -0.328
37 | RRIRQRPPRLPRPRPRPHTPPRP | -0.147
38 | RRIRQRPPRLPRPRPRPHTTPRP | 0.182
39 | RRIRQRPPRLPRPRPRPHVKPRP | -0.274
40 | RRIRQRPPRLPRPRPRPHWCPRP | 0.1
41 | RRIRQRPPRLPRPRPRPHWKPRP | -0.0878
42 | RRIRQRPPRLPRPRPRPHWPPRP | -0.0715
43 | RRIRQRPPRLPRPRPRPHWQPRP | -0.147
44 | RRIRQRPPRLPRPRPRPHYWPRP | 0.0403
45 | RRIRQRPPRLPRPRPRPIAAPRP | 0.269
46 | RRIRQRPPRLPRPRPRPIAPPRP | 4.03
47 | RRIRQRPPRLPRPRPRPIDMPRP | 0.00643
48 | RRIRQRPPRLPRPRPRPIELPRP | -0.293
49 | RRIRQRPPRLPRPRPRPIGTPRP | 0.0722
50 | RRIRQRPPRLPRPRPRPIGVPRP | -0.00783

Row | Sequence | shrunken log2 fold change
51 | RRIRQRPPRLPRPRPRPIHIPRP | -0.187
52 | RRIRQRPPRLPRPRPRPIHTPRP | 0.0773
53 | RRIRQRPPRLPRPRPRPIISPRP | -0.189
54 | RRIRQRPPRLPRPRPRPIIWPRP | 0.0173
55 | RRIRQRPPRLPRPRPRPIIYPRP | -0.858
56 | RRIRQRPPRLPRPRPRPIKGPRP | -0.0145
57 | RRIRQRPPRLPRPRPRPIKMPRP | -0.39
58 | RRIRQRPPRLPRPRPRPIKWPRP | 0.00957
59 | RRIRQRPPRLPRPRPRPIKYPRP | 0.00234
60 | RRIRQRPPRLPRPRPRPINGPRP | -0.000925
61 | RRIRQRPPRLPRPRPRPINPPRP | -0.357
62 | RRIRQRPPRLPRPRPRPIPEPRP | 0.0343
63 | RRIRQRPPRLPRPRPRPIPHPRP | 0.021
64 | RRIRQRPPRLPRPRPRPISAPRP | -0.0212
65 | RRIRQRPPRLPRPRPRPISWPRP | -0.12
66 | RRIRQRPPRLPRPRPRPIVEPRP | 0.0141
67 | RRIRQRPPRLPRPRPRPIWLPRP | 0.66
68 | RRIRQRPPRLPRPRPRPIWTPRP | 0.0198
69 | RRIRQRPPRLPRPRPRPKALPRP | -0.0462
70 | RRIRQRPPRLPRPRPRPKAQPRP | 0.0112
71 | RRIRQRPPRLPRPRPRPKARPRP | 0.152
72 | RRIRQRPPRLPRPRPRPKCHPRP | -0.0268
73 | RRIRQRPPRLPRPRPRPKCIPRP | -0.0337
74 | RRIRQRPPRLPRPRPRPKCKPRP | 0.0386
75 | RRIRQRPPRLPRPRPRPKCLPRP | 0.0772

Row | Sequence | shrunken log2 fold change
76 | RRIRQRPPRLPRPRPRPKEFPRP | 0.0639
77 | RRIRQRPPRLPRPRPRPKFDPRP | -0.0817
78 | RRIRQRPPRLPRPRPRPKFLPRP | -0.157
79 | RRIRQRPPRLPRPRPRPKFQPRP | 0.022
80 | RRIRQRPPRLPRPRPRPKHGPRP | 0.00489
81 | RRIRQRPPRLPRPRPRPKHIPRP | -0.456
82 | RRIRQRPPRLPRPRPRPKINPRP | -0.354
83 | RRIRQRPPRLPRPRPRPKIQPRP | -0.0232
84 | RRIRQRPPRLPRPRPRPKIVPRP | -0.113
85 | RRIRQRPPRLPRPRPRPKKRPRP | 0.107
86 | RRIRQRPPRLPRPRPRPKLNPRP | -0.165
87 | RRIRQRPPRLPRPRPRPKMDPRP | -0.111
88 | RRIRQRPPRLPRPRPRPKNMPRP | -0.646
89 | RRIRQRPPRLPRPRPRPKNQPRP | -0.214
90 | RRIRQRPPRLPRPRPRPKNRPRP | 0.0773
91 | RRIRQRPPRLPRPRPRPKNYPRP | -0.216
92 | RRIRQRPPRLPRPRPRPKQQPRP | -0.141
93 | RRIRQRPPRLPRPRPRPKRTPRP | 0.00512
94 | RRIRQRPPRLPRPRPRPKSDPRP | -0.2
95 | RRIRQRPPRLPRPRPRPKSRPRP | 0.0336
96 | RRIRQRPPRLPRPRPRPKVGPRP | 0.011
97 | RRIRQRPPRLPRPRPRPKVHPRP | -0.0859
98 | RRIRQRPPRLPRPRPRPKVSPRP | -0.073
99 | RRIRQRPPRLPRPRPRPKWAPRP | -0.0411
100 | RRIRQRPPRLPRPRPRPKWWPRP | -0.0687

Row | Sequence | shrunken log2 fold change
101 | RRIRQRPPRLPRPRPRPLACPRP | -0.231
102 | RRIRQRPPRLPRPRPRPLAYPRP | -0.0738
103 | RRIRQRPPRLPRPRPRPLCAPRP | 0.172
104 | RRIRQRPPRLPRPRPRPLCHPRP | -0.142
105 | RRIRQRPPRLPRPRPRPLCYPRP | -0.383
106 | RRIRQRPPRLPRPRPRPLENPRP | -0.0226
107 | RRIRQRPPRLPRPRPRPLFLPRP | -0.65
108 | RRIRQRPPRLPRPRPRPLFVPRP | -0.495
109 | RRIRQRPPRLPRPRPRPLHGPRP | 0.0407
110 | RRIRQRPPRLPRPRPRPLHYPRP | -0.269
111 | RRIRQRPPRLPRPRPRPLIMPRP | -0.0338
112 | RRIRQRPPRLPRPRPRPLIVPRP | -0.149
113 | RRIRQRPPRLPRPRPRPLKKPRP | -0.15
114 | RRIRQRPPRLPRPRPRPLKSPRP | 0.138
115 | RRIRQRPPRLPRPRPRPLQIPRP | 0.223
116 | RRIRQRPPRLPRPRPRPLRAPRP | 0.825
117 | RRIRQRPPRLPRPRPRPLRSPRP | 0.208
118 | RRIRQRPPRLPRPRPRPLRYPRP | -0.0738
119 | RRIRQRPPRLPRPRPRPLSCPRP | -0.242
120 | RRIRQRPPRLPRPRPRPLTRPRP | 0.424
121 | RRIRQRPPRLPRPRPRPLVPPRP | 0.253
122 | RRIRQRPPRLPRPRPRPLWRPRP | 3.25
123 | RRIRQRPPRLPRPRPRPLYEPRP | -0.671
124 | RRIRQRPPRLPRPRPRPLYTPRP | -0.671
125 | RRIRQRPPRLPRPRPRPLYVPRP | -0.307

Row | Sequence | shrunken log2 fold change
126 | RRIRQRPPRLPRPRPRPMCIPRP | 0.0119
127 | RRIRQRPPRLPRPRPRPMDTPRP | -0.031
128 | RRIRQRPPRLPRPRPRPMEVPRP | -0.0855
129 | RRIRQRPPRLPRPRPRPMFVPRP | 0.493
130 | RRIRQRPPRLPRPRPRPMGAPRP | 0.132
131 | RRIRQRPPRLPRPRPRPMIHPRP | -0.471
132 | RRIRQRPPRLPRPRPRPMKQPRP | -0.0134
133 | RRIRQRPPRLPRPRPRPMKRPRP | -0.111
134 | RRIRQRPPRLPRPRPRPMLDPRP | -0.206
135 | RRIRQRPPRLPRPRPRPMLPPRP | -0.384
136 | RRIRQRPPRLPRPRPRPMMEPRP | 0.00908
137 | RRIRQRPPRLPRPRPRPMMLPRP | 0.052
138 | RRIRQRPPRLPRPRPRPMNWPRP | -0.0581
139 | RRIRQRPPRLPRPRPRPMQDPRP | -0.0104
140 | RRIRQRPPRLPRPRPRPMQMPRP | 0.0303
141 | RRIRQRPPRLPRPRPRPMRFPRP | 0.0202
142 | RRIRQRPPRLPRPRPRPMRIPRP | -0.0249
143 | RRIRQRPPRLPRPRPRPMSFPRP | 0.0381
144 | RRIRQRPPRLPRPRPRPMTNPRP | -0.0671
145 | RRIRQRPPRLPRPRPRPMTWPRP | -0.0225
146 | RRIRQRPPRLPRPRPRPMVHPRP | -0.0226
147 | RRIRQRPPRLPRPRPRPMVQPRP | -0.00171
148 | RRIRQRPPRLPRPRPRPMWDPRP | -0.0352
149 | RRIRQRPPRLPRPRPRPMWFPRP | 0.153
150 | RRIRQRPPRLPRPRPRPMWNPRP | -0.123

Source: the supplement of paper PMC9112550, “Optimization of the antimicrobial peptide Bac7 by deep mutational scanning” (BMC Biology, 2022)
